Laboratory results published in patent publication US20240018528A1, “A TUNABLE PHOSPHORYLATION-BASED FEEDBACK CONTROLLER OF MAMMALIAN GENE EXPRESSION” (Massachusetts Institute of Technology, priority 2020, published 2024).

System: OmpR-VP64
Test: Screen of EnvZ variants for kinase and phosphatase activity on OmpR-VP64-driven output
Assay type: cell-based
Details: FIG. 3B
Source text: The well-studied EnvZ-OmpR system was used to develop feedback controllers of the present disclosure, using separate kinase and phosphatase variants of EnvZ, and an OmpR-VP64 fusion protein as an activator for promoting transcription of a reporter protein. Kinase and phosphatase variants of the HK EnvZ through mutation and/or truncation (FIG. 3A). […] However, the phosphatase EnvZ activity was weak compared to the EnvZm2 kinase. To create a stronger phosphatase, a DHp domain of EnvZ was fused to a leucine zipper GCN4 domain, with GCN4 at the N-terminus and EnvZm2 at the C-terminus, to lock the DHp domain of an HK into fixed conformations (FIG. 3C). […]
The phosphatase regulator was further modified to allow tunability by use of a small molecule. […] Expression of both proteins from the same nucleic acid and translation from the same mRNA, such as by separating coding sequences by a 2A motif or open reading frames IRES cassette, ensures maximal coupling of transcription and translation of the two proteins. […]
For quantifying the effects of EnvZ variants and perturbations, fold-changes were calculated by dividing the median output level of each sample by that of the equivalent sample in the absence of the EnvZ variant or perturbation. […]

B1: EnvZm2: kinase+/phosphatase− mutant of EnvZ containing a T247A mutation (SEQ ID NO: 3) (protein)
chain: MRRLRFSPRSSFARTLLLIVTLLFASLVTTYLVVLNFAILPSLQQFNKVLAYEVRMLMTDKLQLEDGTQLVVPPAFRREIYRELGISLYSNEAAEEAGLRWAQHYEFLSHQMAQQLGGPTEVRVEVNKSSPVVWLKTWLSPNIWVRVPLTEIHQGDFSPLFRYTLAIMLLAIGGAWLFIRIQNRPLVDLEHAALQVGKGIIPPPLREYGASEVRSVTRAFNHMAAGVKQLADDRTLLMAGVSHDLRAPLTRIRLATEMMSEQDGYLAESINKDIEECNAIIEQFIDYLRTGQEMPMEMADLNAVLGEVIAAESGYEREIETALYPGSIEVKMHPLSIKRAVANMVVNAARYGNGWIKVSSGTEPNRAWFQVEDDGPGIAPEQRKHLFQPFVRGDSARTISGTGLGLAIVQRIVDNHNGMLELGTSERGGLSIRAWLPVPVTRAQGTTKEG
Question: Which “kinase activity (phosphorylation of OmpR)” value does the source give for B1 here?
Answer: particularly effective in phosphorylating OmpR
